From IntAct's records for PubMed 29039417

B1: Protein PTHB1 (Homo sapiens), Q3SYG4 (parent)
chain: MSLFKARDWWSTILGDKEEFDQGCLCLANVDNSGNGQDKIIVGSFMGYLRIFSPHPAKTGDGAQAEDLLLEVDLRDPVLQVEVGKFVSGTEMLHLAVLHSRKLCVYSVSGTLGNVEHGNQCQMKLMYEHNLQRTACNMTYGSFGGVKGRDLICIQSMDGMLMVFEQESYAFGRFLPGFLLPGPLAYSSRTDSFLTVSSCQQVESYKYQVLAFATDADKRQETEQQKLGSGKRLVVDWTLNIGEQALDICIVSFNQSASSVFVLGERNFFCLKDNGQIRFMKKLDWSPSCFLPYCSVSEGTINTLIGNHNNMLHIYQDVTLKWATQLPHIPVAVRVGCLHDLKGVIVTLSDDGHLQCSYLGTDPSLFQAPNVQSRELNYDELDVEMKELQKIIKDVNKSQGVWPMTEREDDLNVSVVVSPNFDSVSQATDVEVGTDLVPSVTVKVTLQNRVILQKAKLSVYVQPPLELTCDQFTFEFMTPDLTRTVSFSVYLKRSYTPSELEGNAVVSYSRPTDRNPDGIPRVIQCKFRLPLKLICLPGQPSKTASHKITIDTNKSPVSLLSLFPGFASQSDDDQVNVMGFHFLGGARITVLASKTSQRYRIQSEQFEDLWLITNELILRLQEYFEKQGVKDFACSFSGSIPLQEYFELIDHHFELRINGEKLEELLSERAVQFRAIQRRLLARFKDKTPAPLQHLDTLLDGTYKQVIALADAVEENQGNLFQSFTRLKSATHLVILLIALWQKLSADQVAILEAAFLPLQEDTQELGWEETVDAAISHLLKTCLSKSSKEQALNLNSQLNIPKDTSQLKKHITLLCDRLSKGGRLCLSTDAAAPQTMVMPGGCTTIPESDLEERSVEQDSTELFTNHRHLTAETPRPEVSPLQGVSE
partner: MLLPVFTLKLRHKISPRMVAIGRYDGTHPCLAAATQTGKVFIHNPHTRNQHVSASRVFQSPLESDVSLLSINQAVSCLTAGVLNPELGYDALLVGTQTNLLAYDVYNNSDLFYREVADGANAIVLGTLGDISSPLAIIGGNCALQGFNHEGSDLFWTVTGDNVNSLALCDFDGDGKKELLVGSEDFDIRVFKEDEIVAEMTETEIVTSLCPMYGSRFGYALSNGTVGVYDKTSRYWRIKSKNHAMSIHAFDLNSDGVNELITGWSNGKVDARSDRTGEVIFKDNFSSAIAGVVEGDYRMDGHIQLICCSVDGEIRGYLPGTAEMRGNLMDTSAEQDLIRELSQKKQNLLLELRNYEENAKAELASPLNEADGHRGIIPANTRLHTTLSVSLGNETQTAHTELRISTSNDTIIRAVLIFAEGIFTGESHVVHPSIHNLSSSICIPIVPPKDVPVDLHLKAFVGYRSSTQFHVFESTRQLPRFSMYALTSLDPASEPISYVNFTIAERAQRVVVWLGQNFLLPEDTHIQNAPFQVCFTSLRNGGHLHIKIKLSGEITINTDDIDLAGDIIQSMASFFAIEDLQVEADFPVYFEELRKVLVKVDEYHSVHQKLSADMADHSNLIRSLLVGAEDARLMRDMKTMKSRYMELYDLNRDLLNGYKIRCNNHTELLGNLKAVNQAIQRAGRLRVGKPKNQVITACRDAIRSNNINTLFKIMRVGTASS

Variants of: B1
Conditions: with bbs2_human BBS2, Q9BXC9

Row | Variant | effect of a mutation on the interaction
1 | K704E | with no effect
2 | K704A | with no effect
3 | L733K | with no effect
4 | L733A | with no effect
5 | L733E | with no effect
6 | L740A | with no effect
7 | L740K | with no effect
8 | L740E | with no effect
9 | G718D | disrupting interaction strength
10 | G718A | with no effect
11 | G718K | with no effect
12 | G718E | with no effect
13 | S729K | with no effect
14 | S729A | with no effect
15 | S729E | with no effect
16 | L736E | with no effect
17 | L736K | with no effect
18 | L736A | with no effect
19 | D696E | with no effect
20 | D696A | with no effect
21 | D696K | with no effect
22 | Y703K | with no effect

Row | Variant | effect of a mutation on the interaction
23 | Y703E | with no effect
24 | Y703A | with no effect
25 | P691S | disrupting interaction strength
26 | P691A | with no effect
27 | P691K | with no effect
28 | P691E | with no effect
29 | P691L | disrupting interaction strength
30 | H694E | with no effect
31 | H694A | with no effect
32 | H694Y | disrupting interaction strength
33 | H694K | with no effect
34 | H694S | disrupting interaction strength
35 | L720E | with no effect
36 | L720K | with no effect
37 | L720A | with no effect
38 | A690V | disrupting interaction strength
39 | A690K | with no effect
40 | Q717E | with no effect
41 | Q717K | with no effect
42 | Q717A | with no effect
43 | I735K | with no effect
44 | I735E | with no effect

Row | Variant | effect of a mutation on the interaction
45 | I735A | with no effect
46 | R726A | with no effect
47 | R726K | with no effect
48 | R726E | with no effect
49 | L695M | disrupting interaction strength
50 | L695K | with no effect
51 | L695A | with no effect
52 | L695E | with no effect
53 | Q705M | disrupting interaction strength
54 | Q705K | with no effect
55 | Q705A | with no effect
56 | Q705E | with no effect
57 | V713A | with no effect
58 | V713E | with no effect
59 | V713K | with no effect
60 | Q742S | disrupting interaction strength
61 | Q742A | with no effect
62 | Q742L | disrupting interaction strength
63 | Q742K | with no effect
64 | Q742E | with no effect
65 | A708K | with no effect
66 | A708E | with no effect

Row | Variant | effect of a mutation on the interaction
67 | I707E | with no effect
68 | I707A | with no effect
69 | I707K | with no effect
70 | E715K | with no effect
71 | E715A | with no effect
72 | W741G | disrupting interaction strength
73 | W741A | disrupting interaction strength
74 | W741K | with no effect
75 | W741R | disrupting interaction strength
76 | W741S | disrupting interaction strength
77 | W741L | disrupting interaction strength
78 | W741E | with no effect
79 | G701K | with no effect
80 | G701A | with no effect
81 | G701E | disrupting interaction strength
82 | V734A | with no effect
83 | V734K | with no effect
84 | V734E | with no effect
85 | Q693A | with no effect
86 | Q693K | with no effect
87 | Q693E | with no effect

Variants of: B1
Conditions: with bbs2_human BBS2, Q9BXC9
Remark: another data set of the same source

Row | Variant | effect of a mutation on the interaction
88 | W741A | with no effect
